Kd data for one molecule are collected here from paper PMC8062530 (2021).

Holding throughout (experiment): BLI
Background: Biolayer interferometry detects binding as a change in optical thickness at a sensor tip.

For one assay, the target named is T1, Siglec-14 Fc-fusion (UniProt Q08ET2 17-358).
T1 chain: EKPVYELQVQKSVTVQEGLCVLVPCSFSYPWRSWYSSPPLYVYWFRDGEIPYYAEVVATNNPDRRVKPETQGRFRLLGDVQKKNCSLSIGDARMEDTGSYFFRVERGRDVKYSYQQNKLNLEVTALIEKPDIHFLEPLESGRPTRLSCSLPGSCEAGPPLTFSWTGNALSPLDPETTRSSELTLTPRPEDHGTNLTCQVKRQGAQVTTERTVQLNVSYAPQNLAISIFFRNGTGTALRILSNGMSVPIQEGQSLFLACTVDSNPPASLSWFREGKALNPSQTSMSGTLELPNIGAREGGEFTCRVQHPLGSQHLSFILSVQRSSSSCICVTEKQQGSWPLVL

The target of another assay is T2, Siglec-10 Fc-fusion (UniProt Q96LC7 17-550).
T2 chain: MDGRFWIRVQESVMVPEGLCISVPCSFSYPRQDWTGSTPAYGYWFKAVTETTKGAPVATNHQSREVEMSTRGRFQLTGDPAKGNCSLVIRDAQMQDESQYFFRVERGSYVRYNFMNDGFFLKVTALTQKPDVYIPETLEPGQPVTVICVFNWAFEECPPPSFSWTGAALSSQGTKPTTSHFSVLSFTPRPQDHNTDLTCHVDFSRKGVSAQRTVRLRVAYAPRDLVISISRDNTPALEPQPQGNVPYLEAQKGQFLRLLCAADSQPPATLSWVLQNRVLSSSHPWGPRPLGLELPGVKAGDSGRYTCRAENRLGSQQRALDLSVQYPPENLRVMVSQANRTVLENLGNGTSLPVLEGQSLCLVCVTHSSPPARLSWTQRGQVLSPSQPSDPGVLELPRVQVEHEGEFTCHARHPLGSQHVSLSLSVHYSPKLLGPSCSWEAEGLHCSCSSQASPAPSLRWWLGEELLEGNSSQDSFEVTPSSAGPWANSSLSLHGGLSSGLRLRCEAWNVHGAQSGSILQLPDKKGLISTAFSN

The next assay addresses Siglec-9 Fc-fusion (UniProt Q9Y336 18-348).

Siglec-9 Fc-fusion, sequence (Q9Y336 18-348): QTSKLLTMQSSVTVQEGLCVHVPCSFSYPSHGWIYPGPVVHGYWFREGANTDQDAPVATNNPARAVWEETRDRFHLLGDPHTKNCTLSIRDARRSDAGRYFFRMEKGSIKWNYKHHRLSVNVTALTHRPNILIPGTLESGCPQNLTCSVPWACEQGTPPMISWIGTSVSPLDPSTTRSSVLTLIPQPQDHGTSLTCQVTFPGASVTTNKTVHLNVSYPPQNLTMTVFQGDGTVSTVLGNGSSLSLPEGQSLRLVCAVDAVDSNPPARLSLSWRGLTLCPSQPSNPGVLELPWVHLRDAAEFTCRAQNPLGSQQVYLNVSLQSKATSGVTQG

B1: extracellular domain of PTGFRN (aa 26-832) with a C-terminal histidine tag (domain or fragment)
chain: VPTATLVRVVGTELVIPCNVSDYDGPSEQNFDWSFSSLGSSFVELASTWEVGFPAQLYQERLQRGEILLRRTANDAVELHIKNVQPSDQGHYKCSTPSTDATVQGNYEDTVQVKVLADSLHVGPSARPPPSLSLREGEPFELRCTAASASPLHTHLALLWEVHRGPARRSVLALTHEGRFHPGLGYEQRYHSGDVRLDTVGSDAYRLSVSRALSADQGSYRCIVSEWIAEQGNWQEIQEKAVEVATVVIQPSVLRAAVPKNVSVAEGKELDLTCNITTDRADDVRPEVTWSFSRMPDSTLPGSRVLARLDRDSLVHSSPHVALSHVDARSYHLLVRDVSKENSGYYYCHVSLWAPGHNRSWHKVAEAVSSPAGVGVTWLEPDYQVYLNASKVPGFADDPTELACRVVDTKSGEANVRFTVSWYYRMNRRSDNVVTSELLAVMDGDWTLKYGERSKQRAQDGDFIFSKEHTDTFNFRIQRTTEEDRGNYYCVVSAWTKQRNNSWVKSKDVFSKPVNIFWALEDSVLVVKARQPKPFFAAGNTFEMTCKVSSKNIKSPRYSVLIMAEKPVGDLSSPNETKYIISLDQDSVVKLENWTDASRVDGVVLEKVQEDEFRYRMYQTQVSDAGLYRCMVTAWSPVRGSLWREAATSLSNPIEIDFQTSGPIFNASVHSDTPSVIRGDLIKLFCIITVEGAALDPDDMAFDVSWFAVHSFGLDKAPVLLSSLDRKGIVTTSRRDWKSDLSLERVSVLEFLLQVHGSEDQDFGNYYCSVTPWVKSPTGSWQKEAEIHSKPVFITVKMDVLNAFKYP
Take B1: the Kd (commonly the free concentration of one partner at which half of the binding sites on the other are occupied at equilibrium, for simple one-to-one binding) stood at 1.1 µM with Siglec-14 Fc-fusion, 0.76 µM in the assay with Siglec-10 Fc-fusion and 4.2 µM with Siglec-9 Fc-fusion.
